The record followed here is US20210388087A1 (Chugai, published 2021).

To fix the notation:
B1: GLS3000 H27dA (antibody, name in Kabat numbering, V domains shown)
VH: QVQLVESGGGVVQPGRSLRLSCAASGFTFSNAWMHWVRQAPGKGLEWVAQIKAKSNNYATYYAESVKGRFTISRDDSKNSLYLQMNSLKTEDTAVYYCRYVHYGAYYGVDAWGQGTTVTVSS
VL: DIVMTQSPLSLPVTPGEPASISCRSSQSLVASNRNTYLHWYQQKPGQAPRLLIYKVSNRFSGVPDRFSGSGSGTDFTLKISRVEAEDVGVYYCGQGTQVPYTFGQGTKLEIK
notes: one-arm IgG as m2
B2: GLS3000 F55P (antibody, name in Kabat numbering, V domains shown)
VH: QVQLVESGGGVVQPGRSLRLSCAASGFTFSNAWMHWVRQAPGKGLEWVAQIKAKSNNYATYYAESVKGRFTISRDDSKNSLYLQMNSLKTEDTAVYYCRYVHYGAYYGVDAWGQGTTVTVSS
VL: DIVMTQSPLSLPVTPGEPASISCRSSQSLVHSNRNTYLHWYQQKPGQAPRLLIYKVSNRPSGVPDRFSGSGSGTDFTLKISRVEAEDVGVYYCGQGTQVPYTFGQGTKLEIK
notes: one-arm IgG as m2
B3: GLS3000 F55G (antibody, name in Kabat numbering, V domains shown)
VH: QVQLVESGGGVVQPGRSLRLSCAASGFTFSNAWMHWVRQAPGKGLEWVAQIKAKSNNYATYYAESVKGRFTISRDDSKNSLYLQMNSLKTEDTAVYYCRYVHYGAYYGVDAWGQGTTVTVSS
VL: DIVMTQSPLSLPVTPGEPASISCRSSQSLVHSNRNTYLHWYQQKPGQAPRLLIYKVSNRGSGVPDRFSGSGSGTDFTLKISRVEAEDVGVYYCGQGTQVPYTFGQGTKLEIK
notes: one-arm IgG as m2
B4: GLS3000 F55L (antibody, name in Kabat numbering, V domains shown)
VH: QVQLVESGGGVVQPGRSLRLSCAASGFTFSNAWMHWVRQAPGKGLEWVAQIKAKSNNYATYYAESVKGRFTISRDDSKNSLYLQMNSLKTEDTAVYYCRYVHYGAYYGVDAWGQGTTVTVSS
VL: DIVMTQSPLSLPVTPGEPASISCRSSQSLVHSNRNTYLHWYQQKPGQAPRLLIYKVSNRLSGVPDRFSGSGSGTDFTLKISRVEAEDVGVYYCGQGTQVPYTFGQGTKLEIK
notes: one-arm IgG as m2
B5: GLS3000 F55A (antibody, name in Kabat numbering, V domains shown)
VH: QVQLVESGGGVVQPGRSLRLSCAASGFTFSNAWMHWVRQAPGKGLEWVAQIKAKSNNYATYYAESVKGRFTISRDDSKNSLYLQMNSLKTEDTAVYYCRYVHYGAYYGVDAWGQGTTVTVSS
VL: DIVMTQSPLSLPVTPGEPASISCRSSQSLVHSNRNTYLHWYQQKPGQAPRLLIYKVSNRASGVPDRFSGSGSGTDFTLKISRVEAEDVGVYYCGQGTQVPYTFGQGTKLEIK
notes: one-arm IgG as m2
B6: GLS3000 F55N (antibody, name in Kabat numbering, V domains shown)
VH: QVQLVESGGGVVQPGRSLRLSCAASGFTFSNAWMHWVRQAPGKGLEWVAQIKAKSNNYATYYAESVKGRFTISRDDSKNSLYLQMNSLKTEDTAVYYCRYVHYGAYYGVDAWGQGTTVTVSS
VL: DIVMTQSPLSLPVTPGEPASISCRSSQSLVHSNRNTYLHWYQQKPGQAPRLLIYKVSNRNSGVPDRFSGSGSGTDFTLKISRVEAEDVGVYYCGQGTQVPYTFGQGTKLEIK
notes: one-arm IgG as m2
B7: GLS3000 F55I (antibody, name in Kabat numbering, V domains shown)
VH: QVQLVESGGGVVQPGRSLRLSCAASGFTFSNAWMHWVRQAPGKGLEWVAQIKAKSNNYATYYAESVKGRFTISRDDSKNSLYLQMNSLKTEDTAVYYCRYVHYGAYYGVDAWGQGTTVTVSS
VL: DIVMTQSPLSLPVTPGEPASISCRSSQSLVHSNRNTYLHWYQQKPGQAPRLLIYKVSNRISGVPDRFSGSGSGTDFTLKISRVEAEDVGVYYCGQGTQVPYTFGQGTKLEIK
notes: one-arm IgG as m2
B8: GLS3000 F55R (antibody, name in Kabat numbering, V domains shown)
VH: QVQLVESGGGVVQPGRSLRLSCAASGFTFSNAWMHWVRQAPGKGLEWVAQIKAKSNNYATYYAESVKGRFTISRDDSKNSLYLQMNSLKTEDTAVYYCRYVHYGAYYGVDAWGQGTTVTVSS
VL: DIVMTQSPLSLPVTPGEPASISCRSSQSLVHSNRNTYLHWYQQKPGQAPRLLIYKVSNRRSGVPDRFSGSGSGTDFTLKISRVEAEDVGVYYCGQGTQVPYTFGQGTKLEIK
notes: one-arm IgG as m2
B9: GLS3000 F55M (antibody, name in Kabat numbering, V domains shown)
VH: QVQLVESGGGVVQPGRSLRLSCAASGFTFSNAWMHWVRQAPGKGLEWVAQIKAKSNNYATYYAESVKGRFTISRDDSKNSLYLQMNSLKTEDTAVYYCRYVHYGAYYGVDAWGQGTTVTVSS
VL: DIVMTQSPLSLPVTPGEPASISCRSSQSLVHSNRNTYLHWYQQKPGQAPRLLIYKVSNRMSGVPDRFSGSGSGTDFTLKISRVEAEDVGVYYCGQGTQVPYTFGQGTKLEIK
notes: one-arm IgG as m2
B10: GLS3000 F55D (antibody, name in Kabat numbering, V domains shown)
VH: QVQLVESGGGVVQPGRSLRLSCAASGFTFSNAWMHWVRQAPGKGLEWVAQIKAKSNNYATYYAESVKGRFTISRDDSKNSLYLQMNSLKTEDTAVYYCRYVHYGAYYGVDAWGQGTTVTVSS
VL: DIVMTQSPLSLPVTPGEPASISCRSSQSLVHSNRNTYLHWYQQKPGQAPRLLIYKVSNRDSGVPDRFSGSGSGTDFTLKISRVEAEDVGVYYCGQGTQVPYTFGQGTKLEIK
notes: one-arm IgG as m2
B11: GLS3000 F55Q (antibody, name in Kabat numbering, V domains shown)
VH: QVQLVESGGGVVQPGRSLRLSCAASGFTFSNAWMHWVRQAPGKGLEWVAQIKAKSNNYATYYAESVKGRFTISRDDSKNSLYLQMNSLKTEDTAVYYCRYVHYGAYYGVDAWGQGTTVTVSS
VL: DIVMTQSPLSLPVTPGEPASISCRSSQSLVHSNRNTYLHWYQQKPGQAPRLLIYKVSNRQSGVPDRFSGSGSGTDFTLKISRVEAEDVGVYYCGQGTQVPYTFGQGTKLEIK
notes: one-arm IgG as m2
B12: GLS3000 F55E (antibody, name in Kabat numbering, V domains shown)
VH: QVQLVESGGGVVQPGRSLRLSCAASGFTFSNAWMHWVRQAPGKGLEWVAQIKAKSNNYATYYAESVKGRFTISRDDSKNSLYLQMNSLKTEDTAVYYCRYVHYGAYYGVDAWGQGTTVTVSS
VL: DIVMTQSPLSLPVTPGEPASISCRSSQSLVHSNRNTYLHWYQQKPGQAPRLLIYKVSNRESGVPDRFSGSGSGTDFTLKISRVEAEDVGVYYCGQGTQVPYTFGQGTKLEIK
notes: one-arm IgG as m2
B13: GLS3000 F55K (antibody, name in Kabat numbering, V domains shown)
VH: QVQLVESGGGVVQPGRSLRLSCAASGFTFSNAWMHWVRQAPGKGLEWVAQIKAKSNNYATYYAESVKGRFTISRDDSKNSLYLQMNSLKTEDTAVYYCRYVHYGAYYGVDAWGQGTTVTVSS
VL: DIVMTQSPLSLPVTPGEPASISCRSSQSLVHSNRNTYLHWYQQKPGQAPRLLIYKVSNRKSGVPDRFSGSGSGTDFTLKISRVEAEDVGVYYCGQGTQVPYTFGQGTKLEIK
notes: one-arm IgG as m2
B14: GLS3000 F55H (antibody, name in Kabat numbering, V domains shown)
VH: QVQLVESGGGVVQPGRSLRLSCAASGFTFSNAWMHWVRQAPGKGLEWVAQIKAKSNNYATYYAESVKGRFTISRDDSKNSLYLQMNSLKTEDTAVYYCRYVHYGAYYGVDAWGQGTTVTVSS
VL: DIVMTQSPLSLPVTPGEPASISCRSSQSLVHSNRNTYLHWYQQKPGQAPRLLIYKVSNRHSGVPDRFSGSGSGTDFTLKISRVEAEDVGVYYCGQGTQVPYTFGQGTKLEIK
notes: one-arm IgG as m2
B15: H183/L072 VH Y94P (antibody, name in Kabat numbering, V domains shown)
VH: QVQLVESGGGLVQPGRSLRLSCAASGFTFSNAWMHWVRQAPGKGLEWVAQIKDKGNAYAAYYAPSVKGRFTISRDDSKNSIYLQMNSLKTEDTAVYYCHPVHYASASTVLPAFGVDAWGQGTTVTVSS
VL: DIVMTQSPLSLPVTPGEPASISCQASQELVHMNRNTYLHWYQQKPGQAPRLLIYKVSNRFPGVPDRFSGSGSGTDFTLKISRVEAEDVGVYYCAQGTSVPFTFGQGTKLEIK
B16: H183/L072 VH Y97L (antibody, name in Kabat numbering, V domains shown)
VH: QVQLVESGGGLVQPGRSLRLSCAASGFTFSNAWMHWVRQAPGKGLEWVAQIKDKGNAYAAYYAPSVKGRFTISRDDSKNSIYLQMNSLKTEDTAVYYCHYVHLASASTVLPAFGVDAWGQGTTVTVSS
VL: DIVMTQSPLSLPVTPGEPASISCQASQELVHMNRNTYLHWYQQKPGQAPRLLIYKVSNRFPGVPDRFSGSGSGTDFTLKISRVEAEDVGVYYCAQGTSVPFTFGQGTKLEIK
B17: H183/L072 VH Y97M (antibody, name in Kabat numbering, V domains shown)
VH: QVQLVESGGGLVQPGRSLRLSCAASGFTFSNAWMHWVRQAPGKGLEWVAQIKDKGNAYAAYYAPSVKGRFTISRDDSKNSIYLQMNSLKTEDTAVYYCHYVHMASASTVLPAFGVDAWGQGTTVTVSS
VL: DIVMTQSPLSLPVTPGEPASISCQASQELVHMNRNTYLHWYQQKPGQAPRLLIYKVSNRFPGVPDRFSGSGSGTDFTLKISRVEAEDVGVYYCAQGTSVPFTFGQGTKLEIK
B18: H183/L072 VH Y97P (antibody, name in Kabat numbering, V domains shown)
VH: QVQLVESGGGLVQPGRSLRLSCAASGFTFSNAWMHWVRQAPGKGLEWVAQIKDKGNAYAAYYAPSVKGRFTISRDDSKNSIYLQMNSLKTEDTAVYYCHYVHPASASTVLPAFGVDAWGQGTTVTVSS
VL: DIVMTQSPLSLPVTPGEPASISCQASQELVHMNRNTYLHWYQQKPGQAPRLLIYKVSNRFPGVPDRFSGSGSGTDFTLKISRVEAEDVGVYYCAQGTSVPFTFGQGTKLEIK
B19: H183/L072 VH Y97A (antibody, name in Kabat numbering, V domains shown)
VH: QVQLVESGGGLVQPGRSLRLSCAASGFTFSNAWMHWVRQAPGKGLEWVAQIKDKGNAYAAYYAPSVKGRFTISRDDSKNSIYLQMNSLKTEDTAVYYCHYVHAASASTVLPAFGVDAWGQGTTVTVSS
VL: DIVMTQSPLSLPVTPGEPASISCQASQELVHMNRNTYLHWYQQKPGQAPRLLIYKVSNRFPGVPDRFSGSGSGTDFTLKISRVEAEDVGVYYCAQGTSVPFTFGQGTKLEIK
B20: H183/L072 VH Y97I (antibody, name in Kabat numbering, V domains shown)
VH: QVQLVESGGGLVQPGRSLRLSCAASGFTFSNAWMHWVRQAPGKGLEWVAQIKDKGNAYAAYYAPSVKGRFTISRDDSKNSIYLQMNSLKTEDTAVYYCHYVHIASASTVLPAFGVDAWGQGTTVTVSS
VL: DIVMTQSPLSLPVTPGEPASISCQASQELVHMNRNTYLHWYQQKPGQAPRLLIYKVSNRFPGVPDRFSGSGSGTDFTLKISRVEAEDVGVYYCAQGTSVPFTFGQGTKLEIK

In one test the target is T1, CD3 epsilon homodimer protein (UniProt P07766 23-126).
T1 construct: also called CD3 (CD3 epsilon)
T1 sequence (P07766 23-126): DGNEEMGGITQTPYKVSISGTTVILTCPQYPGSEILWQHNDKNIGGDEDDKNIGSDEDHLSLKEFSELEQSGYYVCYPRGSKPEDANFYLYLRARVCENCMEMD
Nature of the test: SPR Biacore T200, CD3e homodimer on chip, vs unaltered GLS3000 antibody.
B1: the “ratio of amounts bound (Z=Y/X)” value came to 0.48. The same measure, in the same setting: under B2 stands 1.16; under B3, 1.31; under B4, 0.76. Turning to B5, the “ratio of amounts bound (Z=Y/X)” value came to 1.13.

Take B6: the “ratio of amounts bound (Z=Y/X)” value stood at 0.98. For the molecule B7, the “ratio of amounts bound (Z=Y/X)” value is 0.82. Take B8: the “ratio of amounts bound (Z=Y/X)” value stood at 1.31. For B9, the “ratio of amounts bound (Z=Y/X)” value came out at 0.8. Still for that read-out and setting: under B10 stands 0.65; under B11, 0.91; under B12, 0.72. On to B13, for which the “ratio of amounts bound (Z=Y/X)” value was 1.33. As to B14, the “ratio of amounts bound (Z=Y/X)” value is 0.94.

The target in the next test is T2, Human CD137 ECD (human).
T2 construct: also called 4-1BB
T2 sequence (chain, as listed by the source limits assumed): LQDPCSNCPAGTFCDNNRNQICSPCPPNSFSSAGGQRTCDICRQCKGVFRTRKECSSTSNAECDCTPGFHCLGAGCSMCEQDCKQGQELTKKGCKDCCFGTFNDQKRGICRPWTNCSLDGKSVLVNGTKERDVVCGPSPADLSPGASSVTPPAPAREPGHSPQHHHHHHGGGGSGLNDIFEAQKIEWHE
Nature of the test: single mutant vs template dBBDu183H.
On to B15, for which the “fold change of affinity” value was determined as 0 fold. Turning to B16, the “fold change of affinity” value turned out to be 0 fold.

As for B17, the “fold change of affinity” value came to 0 fold.

Regarding B18, the “fold change of affinity” value turned out to be 0 fold. Still for that read-out and setting: under B19 stands 0 fold. The same measure, in the same setting: under B20 stands 0 fold.
